Assay results published in patent US7939057B2, “Methods and compositions for modulating the mobilization of stem cells” (Mount Sinai School of Medicine, priority 2006, dated 2011).

Experiments:
[1] = test system: Runx2; test: Q-PCR of Runx2 in BMNCs after G-CSF; format: in vivo; conditions: bone marrow of Cgt+/+ mice after G-CSF; n=4, p<0.001
Experimental: (§1) Methods, primers and PCR conditions are available in Table S3. Briefly, total RNA was extracted from BMNC using TRIzol solution (Invitrogen, Carlsbad, Calif.). The bone carcass was then immersed in liquid nitrogen, and pulverized into powder followed by RNA extraction with TRIzol. Total RNA (1 μg) was treated with DNaseI (Invitrogen, Carlsbad, Calif.), and reverse transcribed using first strand cDNA synthesis with random primers (Promega, Madison, Wis.). Q-PCR was performed using SYBR Green (Molecular Probes) on an ABI PRISM 7900HT Sequence Detection System (Applied Biosystems, Foster city, CA). All experiments were done in triplicate and normalized to GAPDH.

[2] = test system: bone lining osteoblasts; test: Morphology of bone lining osteoblasts (CD44 immunofluorescence); format: in vivo; conditions: G-CSF-treated wild-type C57BL/6 mice
Experimental: For the morphology of bone lining osteoblasts, femoral bones were fixed overnight in formalin, decalcified in 10% EDTA (pH 7.4) for 48 h, snap-frozen in isopentane chilled in liquid nitrogen, and sectioned at 10 μm thickness. Sections were fixed with 4% parafolmaldehyde for 20 min, stained with anti-CD44 (KM201) followed by donkey Alexa-488-anti-rat IgG (Molecular Probes, Eugene, Oreg.), and mounted in Vectashield Mounting Medium with DAPI (Vector Laboratories). TUNEL assay was done using an In Situ Cell Death Detection Kit (Roche Applied Science, Penzberg, Germany) according to manufacturer's recommendation. Images were captured and analyzed with Olympus BX61WI (Hauppauge, N.Y.) with 60× objective mounted on a motorized X, Y stage and a Z focusing drive (Applied Scientific Instrumentation, Eugene, Oreg.). Images are collected with Coolsnap HQ digital camera (Ropert Scientific, Munich, Germany). A Dell workstation with SlideBook software (Intelligent Imaging Innovations, Denver, Colo.) provided for synchronization of components, data acquisition and image deconvolution.

[3] = test system: CXCL12; test: CXCL12 protein by ELISA in BMEF and bone extracts after G-CSF; format: in vivo, mice
Experimental: CXCL12 ELISA was done exactly as described (Petit, I., Szyper-Kravitz, M., Nagler, A., Lahav, M., Peled, A., Habler, L., Ponomaryov, T., Taichman, R. S., Arenzana-Seisdedos, F., Fujii, N., et al. (2002). G-CSF induces stem cell mobilization by decreasing bone marrow SDF-1 and up-regulating CXCR4. Nat Immunol 3, 687-694). Mouse plasma osteocalcin was measured using ELISA kit (Biomedical Technologies Inc., Stoughton, Mass.) according to manufacturer's recommendation.
BMEF was obtained by flushing two femurs with one ml of ice-cold PBS, and the supernatant was harvested after 25 strokes of gentle pipetting followed by centrifugation at 400 g for 5 min. Bone protein extraction was performed as described (Pfeilschifter, J., Laukhuf, F., Muller-Beckmann, B., Blum, W. F., Pfister, T., and Ziegler, R. (1995). Parathyroid hormone increases the concentration of insulin-like growth factor-I and transforming growth factor beta I in rat bone. J Clin Invest 96, 767-774). After extraction, the samples were dialyzed extensively against cold PBS (pH 7.4) for 72 h with a dialysis cassette of 3500 MWCO (Pierce). Volume of dialyzed extracts was measured, centrifuged at 16,000 g for 15 min at 4° C., and the supernatants stored at −80° C. CXCL12 levels in BMEF and bone extracts were determined by ELISA.

[4] = test system: NE; test: NE content in heart and bone after G-CSF (HPLC); format: in vivo, C57BL/6 mice
Experimental: Mice were sacrificed and hearts were rapidly removed, weighed, frozen in liquid nitrogen. Tissues were homogenized in HPLC solvent (0.1M TCA, which contains 10^−2 M sodium acetate, 10^−4 M EDTA and 10.5% methanol, pH 3.8). Hindlimb long bones were harvested, weighted, frozen in liquid nitrogen. Pooled bones were crushed using a bessman tissue pulverizer (Spectrum Laboratories) pre-chilled in a liquid nitrogen bath. Pulverized tissues were homogenized (620 mg/ml) in 0.4N HClO4 containing 0.84 mg/mL EDTA and 12.5 μL of 4% sodium pyrosulfite solution. Bone catecholamines were extracted using solid Al203 and then desorbed from the Al203 using 0.1 N acetic acid. NE levels were determined by HPLC at the Neurochemistry Core Lab, Vanderbilt University's Center for Molecular Neuroscience Research (Nashville, Tenn.).

[5] = test system: CXCL12; test: CXCL12α and CXCL12β mRNA by Q-PCR in BM and bone after G-CSF; format: in vivo, mice
Experimental: as §1

[6] = test system: α1(I) collagen; test: Q-PCR of α1(I) collagen in BMNCs after G-CSF; format: in vivo; conditions: bone marrow of Cgt+/+ mice after G-CSF; n=4, p<0.05
Experimental: as §1

B1: G-CSF: recombinant human G-CSF (Filgrastim, Amgen), hematopoietic cytokine used to elicit HSPC mobilization (protein, UniProt P09919 31-207, looked up)
Granulocyte …: TPLGPASSLPQSFLLKCLEQVRKIQGDGAALQEKLVSECATYKLCHPEELVLLGHSLGIPWAPLSSCPSQALQLAGCLSQLHSGLFLYQGLLQALEGISPELGPTLDTLQLDVADFATTIWQQMEELGMAPALQPTQGAMPAFASAFQRRAGGVLVASHLQSFLEVSYRVLRHLAQP
modifications: filgrastim
notes: recombinant human G-CSF (Filgrastim, Amgen), hematopoietic cytokine used to elicit HSPC mobilization
For B1, the “levels of Runx2, reduction” value [1] was 65%, the “appearance of bone-lining osteoblasts” value [2] was “flattened appearance with shorter projections” and the “CXCL12 protein in BMEF” value ([3]; Cgt+/+ and +/− mice after G-CSF injection) was “greatly reduced”. For the same molecule, the “CXCL12 protein in BMEF” value ([3]; Cgt−/− mice after G-CSF) was “significantly reduced”, the “CXCL12 protein levels in bone” value ([3]; Cgt−/− mice following G-CSF) was “no reduction” and the “CXCL12 in bone protein extracts” value ([3]; Dbh+/− mice following G-CSF) was “reduced”. For the same molecule, the “CXCL12 levels in bone protein extracts” value ([3]; Dbh−/− animals following G-CSF) was “maintained”, the “CXCL12 protein in bone” value ([3]; normal littermate mice following G-CSF) was “decreased” and the “bone NE levels” value ([4]; 3 h after G-CSF administration (250 μg/kg s.c.)) was “dramatic reduction”. The “cardiac NE levels” value ([4]; single dose of G-CSF (250 μg/kg s.c.)) was “slightly reduced”, the “CXCL12 mRNA levels in bone” value ([5]; after G-CSF treatment, p<0.05 for CXCL12α, p=0.06 for CXCL12β) was “moderately decreased” and the “mRNA expression of both CXCL12 isoforms in BM” value ([5]; after G-CSF, Cgt−/− and normal littermates) was “profoundly decreased”. The “α1(I) collagen, reduction” value [6] was 92%.
